# What was measured:
# [1] = biological target: T1, AF10PZP (Homo sapiens, UniProt P55197); assay: Binding of minimal H3 peptide to the PZP domain; details: Figure S1D
# T1 sequence (P55197 18-208 isoform P55197-1): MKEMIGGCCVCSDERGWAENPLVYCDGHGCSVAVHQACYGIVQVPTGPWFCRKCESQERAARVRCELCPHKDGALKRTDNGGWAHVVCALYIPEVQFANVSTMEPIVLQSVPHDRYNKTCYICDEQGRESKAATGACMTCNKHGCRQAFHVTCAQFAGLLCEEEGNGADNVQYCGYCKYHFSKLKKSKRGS
# [2] = biological target: T1, AF10PZP; assay: Histone peptide pull-down with AF10PZP; type: binding; details: biotinylated H3 peptides, Western blot; GST-AF10PZP
# [3] = tested on: AF17PZP; assay: Histone peptide pull-down with AF17PZP; type: binding, human; details: biotinylated H3 peptides, Western blot
# [4] = tested on: JADE1PZP; assay: Histone peptide pull-down with JADE1PZP; type: binding, human; details: biotinylated H3 peptides, Western blot
# [5] = biological target: T1, AF10PZP; assay: ITC binding of H3 peptides to AF10PZP; details: standard deviation derived from nonlinear fitting
Substance,binding of minimal peptide to the PZP domain [1],binding to AF10PZP (peptide pull-down) [2],binding to AF17PZP (peptide pull-down) [3],binding to JADE1PZP (peptide pull-down) [4],Kd [5]
"H3(1-36) peptide spanning residues A21 to K27: minimal peptide, segment of H3(1-36) spanning residues A21 to K27 (ATKAARK; UniProt P68431 22-28, looked up, fragment)","sufficient for binding, though with weaker affinity than the longer peptide",,,,
"H3K27 acetylated: Acetylation of H3K27, H3 (aa 15-34) peptides",,disrupted recognition,disrupted recognition,,
H3_1-21: peptide spanning amino acids 1-21 (H3_1-21; the very N-terminus of H3),,did not bind,did not bind,bound as expected,
H3_15-34 di-methylation at K27: H3_15-34 peptide with di-methylation at K27,,abolished,abolished,,could no longer be detected

# Source: publication PMC4609290 (Molecular cell, 2015)
